Results from paper PMC12671775 (PLOS Genetics, 2025).

Legend:
[1] = test system: O=Cc1ccccc1; assay: purified protein
[2] = target: T1, ChuaHNL (hydroxynitrile lyase, CHUA_005138) (Chamberlinius hualienensis, UniProt A0A0H5BR52); type: biochemical
T1 construct: N-terminal His-tagged, produced in Pichia pastoris

Row | Compound | Km [1] | Km [2]
1 | ChuaHNL (hydroxynitrile lyase, CHUA_005138) (Chamberlinius hualienensis) | 4.31 ± 0.771 mM | –
2 | N#CC(O)c1ccccc1 (racemic) [MAN, (R,S)-mandelonitrile] | – | 13.7 ± 2.35 mM
